These results are taken from US10287521B2, “Enzymatic removal of steryl glycosides” (KECLON S.A., priority 2012, dated 2019).

Experiment [1] in a line: Steryl glycoside hydrolysis in distilled biodiesel/water mixture (Example 5). Format: biochemical. The protocol:
Steryl glycosidase activity is measured as follows: • a) Prepare a stock solution of steryl glycoside by dissolving 10 milligrams (mg) of steryl glycoside in 1 milliliter (ml) of a 3:1 mixture of tetrahydrofuran:water. • b) Add the steryl glycoside to a final concentration of 100 microgram per milliliter (μg/ml) in 1 ml of a reaction mixture containing 50 millimolar (mM) Phosphate buffer pH 6.5 and 5 μg of steryl glycosidase in an Eppendorf tube. • c) Place the reaction mixture on a shaker incubator and incubate at 80° C. for 4 h. • d) Extract the reaction mixture with 1 ml of ethyl acetate and evaporate to dryness under vacuum. • e) Re-dissolve the sample in 10 microliter (μl) of ethyl acetate • f) Analyze by thin layer chromatography (TLC) the presence of free sterols, generated as a result of steryl glycoside hydrolysis after the enzymatic treatment, using Hexane:Methanol 85:15 as running buffer and develop with ρ-anisaldehide • d) Alternatively, analyze 50 μl sample of the reaction mixture for the presence of glucose using an assay based on the Hexokinase/Glucose 6-P-dehydrogenase method: the glucose generated by steryl glycoside hydrolisis is converted by Hexokinase (or Glucokinase) into glucose 6-phosphate. Glucose 6-phosphate is further oxidized by Glucose 6-P dehydrogenase, simultaneously reducing NADP+ to NADPH. The NADPH generated is detected by fluorescence (λex: 338 nm, λem: 461 nm) and allows detection of glucose levels below 1 ppm. The assay can be adapted to microplates scale and detected in a Synergy microplate reader.
The following is an example of how to use a steryl glycosidase to remove steryl glycosides from a biodiesel mixture: • a) A 42.5 ml distilled biodiesel sample containing 100 ppm of steryl glycosides is mixed with 7.5 ml of a water solution containing 50 mM Phosphate buffer pH 6.5 and 300 μg of steryl glycosidase. […]

Experiment [2] in a line: Steryl glycoside hydrolysis in crude biodiesel (Example 6). In kind it is biochemical. The note with it: about 70 ppm steryl glycosides, 8 mg enzyme, 80° C., in 3 h.

B1: TL: steryl glycosidase TL from T. litoralis (SEQ ID NO.: 17) (protein, listed as Thermococcus litoralis)
chain: FPEKFLFGTSTAAHQVEGDNRWNDWWYYEEIGKLPYKSGKACNHWGLYREDIELMAQLGYNAYRFSIEWSRLFPEEGKFNEDAFNRYREIIELLLEKGITPNVTLHHFTSPLWFMRKGGFLKEENLKYWEKYVDKAAELLKGVKLVATFNEPMVYVMMGYLTAYWPPFVKSPFKAFKVAANLLKAHAMAYDILHGNFDVGIVKNIPIMLPASNREKDIKAAQKADNLFNWNFLDAIWSGKYKGAFGTYKTPESDVDFIGINYYTASEVRHSWNPLKFFFDAKLADLSERKTDMGWSVYPKGIYEAIAKVSRYGKPMYITENGIATLEDEWRIEFIIQHLQYVHKALNDGFDLRGYFYWSFMDNYEWAEGFRPRFGLVEVDYTTFERRPRKSGYVYGEIAREKKIKDELLAKYGLPEL
Regarding B1, the “steryl glycoside hydrolysis compared with LacS” value in experiment [1] (Bio/water+ADMUL emulsions, data not shown) was “higher and faster hydrolysis”. Besides, the steryl glycoside hydrolysis in experiment [1] (without the addition of any emulsifier, in 3 h, 80° C.) was around 100%. In experiment [2], the “steryl glycoside hydrolysis in crude biodiesel” value is reported as “could completely hydrolize steryl glycosides”.

B2: LacS: steryl glycosidase LacS from S. solfataricus (SEQ ID NO.: 2) (protein, listed as Sulfolobus solfataricus)
chain: MYSFPNSFRFGWSQAGFQSEMGTPGSEDPNTDWYKWVHDPENMAAGLVSGDLPENGPGYWGNYKTFHDNAQKMGLKIARLNVEWSRIFPNPLPRPQNFDESKQDVTEVEINENELKRLDEYANKDALNHYREIFKDLKSRGLYFILNMYHWPLPLWLHDPIRVRRGDFTGPSGWLSTRTVYEFARFSAYIAWKFDDLVDEYSTMNEPNVVGGLGYVGVKSGFPPGYLSFELSRRAMYNIIQAHARAYDGIKSVSKKPVGIIYANSSFQPLTDKDMEAVEMAENDNRWWFFDAIIRGEITRGNEKIVRDDLKGRLDWIGVNYYTRTVVKRTEKGYVSLGGYGHGCERNSVSLAGLPTSDFGWEFFPEGLYDVLTKYWNRYHLYMYVTENGIADDADYQRPYYLVSHVYQVHRAINSGADVRGYLHWSLADNYEWASGFSMRFGLLKVDYNTKRLYWRPSALVYREIATNGAITDEIEHLNSVPPVKPLRH
Take B2: the “steryl glycoside hydrolysis, dependence on emulsifier” value in experiment [1] (distilled biodiesel/water, 80° C., with or without 5% ADMUL emulsifier) was “could only exhibit steryl glycoside hydrolisis when reactions were performed in the presence of ADMUL™”.
